The text below walks through data of publication PMC9820535.

In this data set the target is T1, rDmeR (Vibrio parahaemolyticus RIMD 2210633) (UniProt Q87GM9).
T1 sequence: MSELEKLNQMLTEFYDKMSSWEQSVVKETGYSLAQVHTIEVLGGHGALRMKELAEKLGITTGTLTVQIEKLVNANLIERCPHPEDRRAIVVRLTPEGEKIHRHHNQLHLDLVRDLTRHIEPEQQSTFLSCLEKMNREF
Description: EMSA. Conditions: 10 mM Tris pH 7.4, 150 mM NaCl, 0.1 mM DTT, 0.1 mM EDTA or 0.5 mM CoSO4, 200 ng poly(dI:dC), 20 ng DNA, 0-1.0 ug rDmeR in 20 uL, 25 C 30 min, 6% native PAGE. In general terms: Mobility shift assays separate free from complexed probe on a gel.

“CAAGGGCAACATCTTACAGCCATGACCGGTAAACAATGCATTTACCTAATTGACGACTTTGCGTCGGAATTAGATAGCCAACGTCGCAAGCGTCTTGCAGATTGCTTGAAAGAGACAGGCGCACAAGTATTTGTAAGCTCTATCACTGAAAACCAAATCGCCGACATGCTCGACGATAATGGCAAATTGTTTCATGTGGAACATGGCAGGATAGA (double strand) [PgyrB promoter probe]”: the binding result is listed as “no binding”.

As to “TAAGCGGCTGATTCCCAAACAAGGCCGCATATGTTCATGCGGGGAGGCATCAGATTGGCCAATCTTGAGTGCAGTGATGAACGCCTTTCTTAGTTTTCTATGTTGACTTTGTTTGATGGTCAAACTAAATTTAAATCAAATATTTTGATTATCAAACAAAATGAGCAATAACGATATGATTTATCTATGGCAATAGCACAACACACGC (double strand) [PdmeRF promoter probe (WT)]”, the binding result is “binds”.
